Test results taken from US7005285.

Legend:
[1] = molecular target: histone H1
[2] = molecular target: myelin basic protein

B1: human p21-activated kinase 5 (PAK5), full length, expressed in 293 cells from pcDNA3.1 myc-his (protein)
chain: MFGKKKKKIEISGPSNFEHRVHTGFDPQEQKFTGLPQQWHSLLADTANRPKPMVDPSCITPIQLAPMKTIVRGNKPCKETSINGLLEDFDNISVTRSNSLRKESPPTPDQGASSHGPGHAEENGFITFSQYSSESDTTADYTTEKYREKSLYGDDLDPYYRGSHAAKQNGHVMKMKHGEAYYSEVKPLKSDFARFSADYHSHLDSLSKPSEYSDLKWEYQRASSSSPLDYSFQFTPSRTAGTSGCSKESLAYSESEWGPSLDDYDRRPKSSYLNQTSPQPTMRQRSRSGSGLQEPMMPFGASAFKTHPQGHSYNSYTYPRLSEPTMCIPKVDYDRAQMVLSPPLSGSDTYPRGPAKLPQSQSKSGYSSSSHQYPSGYHKATLYHHPSLQSSSQYISTASYLSSLSLSSSTYPPPSWGSSSDQQPSRVSHEQFRAALQLVVSPGDPREYLANFIKIGEGSTGIVCIGTEKHTGKQVAVKKMDLRKQQRRELLFNEVVIMRDYHHDNVVDMYSSYLVGDELWVVMEFLEGGALTDIVTHTRMNEEQIATVCLSVLRALSYLHNQGVIHRDIKSDSILLTSDGRIKLSDFGFCAQVSKEVPKRKSLVGTPYWMAPELISRLPYGTEVDIWSLGIMVIEMIDGEPPYFNEPPLQAMRRIRDSLPPRVKDLHKVSSVLRGFLDLMLVREPSQRATAQELLGHPFLKLAGPPSCIVPLMRQYRHH
- kinase assay: incorporation of 32P from [gamma-32P]ATP into substrate, SDS gel and phosphoimager [1]: PAK5 is able to phosphorylate generic kinase substrates such as myelin basic protein and histone H1
- kinase assay: incorporation of 32P from [gamma-32P]ATP into substrate, SDS gel and phosphoimager [2]: PAK5 is able to phosphorylate generic kinase substrates such as myelin basic protein and histone H1
